From PMC6524969, “A nanobody-based molecular toolkit provides new mechanistic insight into clathrin-coat initiation” (eLife, 2019)
Values belong to the binder of their own block, whether it stands above or below them.

Tests used:
[1] = molecular target: T1, native Eps15 in rat brain cytosol (Rattus norvegicus (brain cytosol, …, UniProt A0A8I5YC99)); test: pull-down; called immunoprecipitation; purified His6-tagged Nb E_142 bound to Ni-NTA-agarose; K-562 cell lysate or rat brain cytosol; immunoblots; settings: one partner purified
T1 construct: Eps15, endogenous in rat brain cytosol; source: endogenous, rat brain cytosol

[2] = molecular target: T2, EPS15R in K-562 cell lysate (human (endogenous in K-562), UniProt Q9UBC2); test: as above; settings: one partner purified
T2 construct: Epidermal growth factor receptor substrate 15R, endogenous in K-562 cells

GST-EPS15 (1-109) = molecular target: T3, GST-EPS15 (1-109) (Homo sapiens, UniProt P42566); test: pull-down; quantitative titration; Nb E_142 fixed at 2 μM, immobilised GST-EPS15 (1-109) 0.5-20 μM or (1-314) 0.25-10 μM; PBS with 100 μg/ml BSA, 4°C, 60 min, 400 μl; Nb band in the supernatant quantified; apparent KD (half-maximal binding); settings: both partners purified
T3 construct: stop codon L110* in pGEX-5X-1; Printed molecular weight 38,271.3; also called EH1; source: E. coli BL21 codon plus RIL, purified (glutathione-Sepharose); not shown: GST, N-terminal, kept

GST-EPS15 (1-314) [3] = molecular target: T4, GST-EPS15 (1-314) (human, UniProt P42566); test: as above; settings: both partners purified
T4 construct: stop codon at 315 (S315*) in pGEX-5X-1; Printed molecular weight 60,924.7; also called GST-EPS15 EH1-3; source: E. coli BL21 codon plus RIL, purified (glutathione-Sepharose); not shown: GST, N-terminal, kept

GST-EPS15R (1-365) = molecular target: T5, GST-EPS15R (1-365) (Homo sapiens, UniProt Q9UBC2); test: pull-down; GST fusion (50 μg, or increasing amounts) immobilised on glutathione-Sepharose; Nb in clarified E. coli periplasmic extract adjusted to 125 mM sodium chloride; 4°C, 60 min; supernatant and pellet on Coomassie-stained gels; settings: one partner purified
T5 construct: Epidermal growth factor receptor substrate 15R (EPS15R, gene EPS15L1), H. sapiens, residues 1-365 (stop T366*), in pGEX-5X-1; also called EPS15R EH1R-3R; source: E. coli BL21 codon plus RIL, purified (glutathione-Sepharose)

[4] = molecular target: T6, endogenous EPS15 in HeLa cells (Homo sapiens, UniProt P42566); test: immunostaining of cells or tissue; relocalisation in cells: Nb E_142 fusion tethered to endosomes (GFP-FYVE2) or mitochondria (Akap1) in transfected HeLa cells; endogenous EPS15 stained with antibodies, confocal microscopy; controls without the Nb module; settings: partners not purified
T6 construct: Epidermal growth factor receptor substrate 15, endogenous in HeLa cells, stained with anti-EPS15 antibodies; source: endogenous, HeLa SS6 and HeLa clone #40 cells

GST-EPS15 (1-314) [5] = molecular target: T4, GST-EPS15 (1-314); test: pull-down; GST fusion (50 μg, or increasing amounts) immobilised on glutathione-Sepharose; Nb in clarified E. coli periplasmic extract adjusted to 125 mM sodium chloride; 4°C, 60 min; supernatant and pellet on Coomassie-stained gels; settings: one partner purified

T4 sequence (P42566 1-314): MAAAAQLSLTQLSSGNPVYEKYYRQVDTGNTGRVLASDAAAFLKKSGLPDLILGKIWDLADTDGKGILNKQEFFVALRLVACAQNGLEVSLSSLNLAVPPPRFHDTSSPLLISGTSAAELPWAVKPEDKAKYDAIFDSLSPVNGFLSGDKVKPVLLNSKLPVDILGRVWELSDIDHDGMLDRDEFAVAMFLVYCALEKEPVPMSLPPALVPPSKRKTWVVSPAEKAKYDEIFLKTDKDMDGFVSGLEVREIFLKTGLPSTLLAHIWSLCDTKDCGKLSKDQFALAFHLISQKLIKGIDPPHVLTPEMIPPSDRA
T6 sequence (P42566 whole entry, the tested form may be a part): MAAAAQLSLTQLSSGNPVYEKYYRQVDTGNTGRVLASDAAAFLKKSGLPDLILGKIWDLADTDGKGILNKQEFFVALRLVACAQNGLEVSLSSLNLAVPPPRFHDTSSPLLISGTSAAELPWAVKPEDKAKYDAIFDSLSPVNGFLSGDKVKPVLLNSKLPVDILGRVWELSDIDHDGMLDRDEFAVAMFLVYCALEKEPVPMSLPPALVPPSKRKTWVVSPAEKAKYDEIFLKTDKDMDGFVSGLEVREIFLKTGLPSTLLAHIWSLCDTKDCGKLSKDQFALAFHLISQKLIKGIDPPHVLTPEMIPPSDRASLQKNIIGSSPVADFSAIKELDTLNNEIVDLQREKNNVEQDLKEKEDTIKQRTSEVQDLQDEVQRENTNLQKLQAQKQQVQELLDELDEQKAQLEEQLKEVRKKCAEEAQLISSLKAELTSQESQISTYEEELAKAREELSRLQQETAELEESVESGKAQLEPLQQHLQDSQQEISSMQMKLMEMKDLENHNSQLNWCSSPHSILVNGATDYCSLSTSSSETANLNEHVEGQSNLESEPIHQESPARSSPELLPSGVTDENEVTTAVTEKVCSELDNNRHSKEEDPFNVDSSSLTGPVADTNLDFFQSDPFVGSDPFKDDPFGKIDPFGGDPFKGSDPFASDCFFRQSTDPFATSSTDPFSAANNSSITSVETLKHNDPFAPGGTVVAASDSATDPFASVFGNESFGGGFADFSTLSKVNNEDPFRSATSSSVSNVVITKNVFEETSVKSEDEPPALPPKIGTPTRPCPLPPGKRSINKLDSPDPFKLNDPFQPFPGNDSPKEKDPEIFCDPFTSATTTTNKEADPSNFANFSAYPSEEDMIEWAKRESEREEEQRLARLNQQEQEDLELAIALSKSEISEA
T5 sequence (Q9UBC2 1-365): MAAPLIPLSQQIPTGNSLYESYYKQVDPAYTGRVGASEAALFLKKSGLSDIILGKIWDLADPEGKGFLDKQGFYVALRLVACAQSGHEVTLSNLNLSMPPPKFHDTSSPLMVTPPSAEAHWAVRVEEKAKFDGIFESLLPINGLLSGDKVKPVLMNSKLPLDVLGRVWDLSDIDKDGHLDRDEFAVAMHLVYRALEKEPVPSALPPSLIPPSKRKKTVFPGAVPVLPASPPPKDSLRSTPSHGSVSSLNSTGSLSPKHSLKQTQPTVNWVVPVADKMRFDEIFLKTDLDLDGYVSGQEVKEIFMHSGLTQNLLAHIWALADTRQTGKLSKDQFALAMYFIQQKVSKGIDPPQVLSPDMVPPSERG
T2 sequence (Q9UBC2 whole entry): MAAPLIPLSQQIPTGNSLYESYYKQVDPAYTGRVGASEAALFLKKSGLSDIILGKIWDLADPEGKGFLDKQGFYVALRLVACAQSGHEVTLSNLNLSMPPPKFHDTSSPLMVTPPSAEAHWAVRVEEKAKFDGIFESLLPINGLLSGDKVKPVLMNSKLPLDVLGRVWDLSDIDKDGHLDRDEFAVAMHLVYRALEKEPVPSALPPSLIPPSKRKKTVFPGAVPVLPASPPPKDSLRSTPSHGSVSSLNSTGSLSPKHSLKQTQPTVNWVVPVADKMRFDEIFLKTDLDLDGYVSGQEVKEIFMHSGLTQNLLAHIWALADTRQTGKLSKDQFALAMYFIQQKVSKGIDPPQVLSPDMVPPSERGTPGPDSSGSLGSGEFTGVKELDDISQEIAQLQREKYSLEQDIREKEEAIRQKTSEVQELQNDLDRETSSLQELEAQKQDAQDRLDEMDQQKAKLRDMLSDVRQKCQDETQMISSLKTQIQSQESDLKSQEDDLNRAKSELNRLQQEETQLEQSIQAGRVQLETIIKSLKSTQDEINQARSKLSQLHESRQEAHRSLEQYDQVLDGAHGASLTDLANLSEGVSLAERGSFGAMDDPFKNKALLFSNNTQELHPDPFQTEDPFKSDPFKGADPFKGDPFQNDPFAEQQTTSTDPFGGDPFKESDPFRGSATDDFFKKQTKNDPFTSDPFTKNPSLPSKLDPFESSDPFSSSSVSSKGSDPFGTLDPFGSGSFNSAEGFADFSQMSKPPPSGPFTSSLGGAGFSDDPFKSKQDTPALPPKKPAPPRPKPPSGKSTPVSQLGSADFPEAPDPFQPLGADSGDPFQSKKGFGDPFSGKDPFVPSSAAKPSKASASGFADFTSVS
T3 sequence (P42566 1-109): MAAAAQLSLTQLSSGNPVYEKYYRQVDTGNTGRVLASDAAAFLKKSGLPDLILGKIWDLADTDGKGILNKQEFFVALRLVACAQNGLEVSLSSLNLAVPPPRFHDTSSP

binding result [1]: binds
binding result [2]: binds
Kd (GST-EPS15 (1-109)): ~3000 nM
Kd (GST-EPS15 (1-314) [3]): ~2000 nM
binding result (GST-EPS15R (1-365)): binds
B1: Nb E_142 (VHH)
VHH: QVQLQESGGGLVQAGGSLRLSCAASGFISSSSTMGWYRPAPGKQRELVASISSGGTTNYAESVKGRFTISRDNAKNTVYLQMDSLKPEDTAVYYCNMKSMNPFRRYDVWGQGTQVTVSS
notes: NPF(R) tripeptide in CDR3; Printed molecular weight of Nb E_142-His6: 13,683.2; also called Nb E_142-His6; His6-tagged Nb E_142; source: E. coli XL1-Blue (pHEN6c), periplasmic extract; also purified from the periplasmic extract (Ni-NTA-agarose, Sephacryl S-100); not shown: His6, C-terminal, kept

binding result [4]: binds
B2: GFP-FYVE2-desNb E_142 (VHH)
VHH: QVQLQESGGGLVQAGGSLRLSCAASGFISSSSTMGWYRPAPGKQRELVASISSGGTTNYAESVKGRFTIRRDNAKNTVYLQMDSLKPEDTAVYYYNMKSMNPFRRYDVWGQGTQVTVSF
notes: Four glycine residues between the second FYVE domain and the Nb; also called GFP-FYVE2-dNb E_142; 3maj conditionally destabilized Nb E_142; source: HeLa SS6, transiently transfected, in cells; not shown: GFP, N-terminal, kept; tandem FYVE domain (FYVE2), N-terminal, kept

binding result (GST-EPS15 (1-314) [5]): binds
B3: Nb E_180 (VHH)
VHH: QVQLQESGGGSVQAGGSLRLSCAASGSIFSVNLMGWYREAPGKATEFVATVTAGGYTNVADSLKDRFTISMDNAKNTVYLQMNNLKPEDTAVYYCNMKSMNPFRRYDVWGQGTQVTVSS
notes: CDR3 identical to that of Nb E_142, 18 amino acid differences from Nb E_142; also called Nb E_180-His6; source: E. coli XL1-Blue (pHEN6c), periplasmic extract

binding result (GST-EPS15 (1-314) [5]): binds
B4: Nb E_3 (VHH)
VHH: QVQLQESGGGLVQAGGSLRLSCAASGSIFSINAMGWYRQAPGKQRELVAAITSGGTTNYADSVKGRFTISRDNAKNTLYLQMNSLKPEDTAVYYCNLGGLRNPFGSWGQGTQVTVSS
notes: NPF tripeptide in CDR3, placed differently from that of Nb E_142; also called Nb E_3-His6; source: E. coli XL1-Blue (pHEN6c), periplasmic extract
